First the molecules themselves.
B1: MIAB148 (antibody, human IgG1, kappa)
heavy: EVQLLESGGGLVQPGGSLRLSCAASGFTFSDFWMHWVRQAPGKGLEWISYISGDSGYTNYADSVKGRFTISRDNSKNTLYLQMNSLRAEDTAVYYCARDRPYYYYMDVWGKGTTVTVSSASTKGPSVFPLAPSSKSTSGGTAALGCLVKDYFPEPVTVSWNSGALTSGVHTFPAVLQSSGLYSLSSVVTVPSSSLGTQTYICNVNHKPSNTKVDKKVEPKSCDKTHTCPPCPAPEAAGAPSVFLFPPKPKDTLMISRTPEVTCVVVDVSHEDPEVKFNWYVDGVEVHNAKTKPREEQYNSTYRVVSVLTVLHQDWLNGKEYKCKVSNKALPAPIEKTISKAKGQPREPQVYTLPPSREEMTKNQVSLTCLVKGFYPSDIAVEWESNGQPENNYKTTPPVLDSDGSFFLYSKLTVDKSRWQQGNVFSCSVMHEALHNHYTQKSLSLSPGGGGGSAPTSSSTKKTQLQLEHLLLDLQMILNGINNYKNPKLTRMLTFKFYMPKKATELKHLQCLEEELKPLEEALNLAPSKNFHLRPRDLISDINVIVLELKGSETTFMCEYADETATIVEFINRWITFSQSIISTLT
light: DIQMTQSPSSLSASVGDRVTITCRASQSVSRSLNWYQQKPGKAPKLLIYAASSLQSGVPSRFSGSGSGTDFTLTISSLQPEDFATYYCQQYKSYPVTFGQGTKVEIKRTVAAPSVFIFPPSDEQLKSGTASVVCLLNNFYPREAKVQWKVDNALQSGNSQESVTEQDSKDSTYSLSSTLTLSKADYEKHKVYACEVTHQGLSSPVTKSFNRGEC
B2: MIAB175 (antibody, human IgG1, kappa)
heavy: B1 heavy with D31S, F32Y
light: DIQMTQSPSSLSASVGDRVTITCRASQSVSRSLAWYQQKPGKAPKLLIYAASSLQSGVPSRFSGSGSGTDFTLTISSLQPEDFATYYCQQYKSYPVTFGQGTKVEIKRTVAAPSVFIFPPSDEQLKSGTASVVCLLNNFYPREAKVQWKVDNALQSGNSQESVTEQDSKDSTYSLSSTLTLSKADYEKHKVYACEVTHQGLSSPVTKSFNRGEC
notes: also called MIAB175-001
B3: MIAB182 (antibody, human IgG1, kappa)
heavy: B1 heavy with D31S, F32Y, I48V, Y50A, D54S, S55G, Y57S, N59Y
light: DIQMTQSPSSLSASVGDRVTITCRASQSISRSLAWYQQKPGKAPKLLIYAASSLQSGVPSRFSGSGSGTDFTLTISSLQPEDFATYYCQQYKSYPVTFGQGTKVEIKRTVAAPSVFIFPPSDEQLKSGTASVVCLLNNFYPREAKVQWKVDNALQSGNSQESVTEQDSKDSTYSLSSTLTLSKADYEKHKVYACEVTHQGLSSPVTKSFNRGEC
notes: also called MIAB182-001
B4: MIAB174 (antibody, human IgG1, kappa)
heavy: B1 heavy with F32Y
light: B2 light
notes: also called MIAB174-001
B5: MIAB178 (antibody, human IgG1, kappa)
heavy: B1 heavy with D31S, F32Y, Y50A, D54S, Y57S, N59Y
light: B2 light
notes: also called MIAB178-001
B6: MIAB184 (antibody, human IgG1, kappa)
heavy: B1 heavy with D31S, F32Y, I48V, Y50A, D54S, S55G, Y57S, N59Y
light: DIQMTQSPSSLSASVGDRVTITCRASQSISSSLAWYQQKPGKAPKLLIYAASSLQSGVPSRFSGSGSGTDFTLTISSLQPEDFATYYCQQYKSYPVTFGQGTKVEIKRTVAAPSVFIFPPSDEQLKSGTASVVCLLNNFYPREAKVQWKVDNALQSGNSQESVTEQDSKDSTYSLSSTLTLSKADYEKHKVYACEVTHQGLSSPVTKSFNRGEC
notes: also called MIAB184-001
B7: MIAB183 (antibody, human IgG1, kappa)
heavy: B1 heavy with D31S, F32Y, I48V, Y50A, D54S, S55G, Y57S, N59Y
light: B2 light with R31S
notes: also called MIAB183-001
B8: MIAB141 (antibody, human IgG1, kappa)
heavy: B1 heavy
light: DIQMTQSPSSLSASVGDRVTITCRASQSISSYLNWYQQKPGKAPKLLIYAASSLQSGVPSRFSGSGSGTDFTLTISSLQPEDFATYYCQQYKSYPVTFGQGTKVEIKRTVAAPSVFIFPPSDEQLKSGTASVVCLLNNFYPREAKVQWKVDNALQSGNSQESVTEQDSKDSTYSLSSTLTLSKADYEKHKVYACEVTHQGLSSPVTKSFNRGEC
notes: LCDR1 germlined
B9: MIAB170 (antibody, human IgG1, kappa)
heavy: B1 heavy with Y105W
light: B2 light
B10: MIAB177 (antibody, human IgG1, kappa)
heavy: B1 heavy with I48V, Y50A, D54S, S55G, Y57S, N59Y
light: B2 light
notes: also called MIAB177-001
B11: MIAB139 (antibody)
heavy: B1 heavy
light: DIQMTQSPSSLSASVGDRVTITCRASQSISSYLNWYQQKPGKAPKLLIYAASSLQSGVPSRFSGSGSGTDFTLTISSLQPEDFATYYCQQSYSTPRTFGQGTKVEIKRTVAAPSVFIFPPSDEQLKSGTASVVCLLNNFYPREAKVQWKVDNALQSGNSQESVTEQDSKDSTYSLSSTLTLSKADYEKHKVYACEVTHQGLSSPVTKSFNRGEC
B12: MIAB198 (antibody, human IgG1, kappa)
heavy: B1 heavy with Y105I, T456A
light: B2 light
notes: also called MIAB198-CHO; MIAB198-HEK
B13: MIAB129 (antibody, human IgG1, kappa)
heavy: B1 heavy with Y102G
light: B2 light
B14: MIAB158 (antibody, human IgG1, kappa)
heavy: B1 heavy
light: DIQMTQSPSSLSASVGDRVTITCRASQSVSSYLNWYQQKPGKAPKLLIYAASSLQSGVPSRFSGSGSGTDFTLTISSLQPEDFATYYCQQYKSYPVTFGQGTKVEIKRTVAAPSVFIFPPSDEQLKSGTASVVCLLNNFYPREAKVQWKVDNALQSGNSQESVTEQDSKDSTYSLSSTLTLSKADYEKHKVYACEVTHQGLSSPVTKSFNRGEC
B15: MIAB155 (antibody, human IgG1, kappa)
heavy: B1 heavy
light: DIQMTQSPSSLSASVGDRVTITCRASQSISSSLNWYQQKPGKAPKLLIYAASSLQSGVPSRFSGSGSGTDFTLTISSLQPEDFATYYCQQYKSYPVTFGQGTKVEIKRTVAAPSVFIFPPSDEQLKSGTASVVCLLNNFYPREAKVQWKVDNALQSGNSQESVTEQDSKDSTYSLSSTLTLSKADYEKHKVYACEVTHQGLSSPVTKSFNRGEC
B16: MIAB204 (Fc fusion)
chain: APTSSSTKKTQLQLEHLLLDLQMILNGINNYKNPKLTRMLTFKFYMPKKATELKHLQCLEEELKPLEEALNLAPSKNFHLRPRDLISDINVIVLELKGSETTFMCEYADETATIVEFINRWITFSQSIISTLTGGGGSGGGGSGGGGSGGGGSDKTHTCPPCPAPEAAGAPSVFLFPPKPKDTLMISRTPEVTCVVVDVSHEDPEVKFNWYVDGVEVHNAKTKPREEQYNSTYRVVSVLTVLHQDWLNGKEYKCKVSNKALPAPIEKTISKAKGQPREPQVYTLPPSREEMTKNQVSLTCLVKGFYPSDIAVEWESNGQPENNYKTTPPVLDSDGSFFLYSKLTVDKSRWQQGNVFSCSVMHEALHNHYTQKSLSLSPGGGGGSGGGGSGGGGSEVQLLESGGGLVQPGGSLRLSCAASGFTFSDFWMHWVRQAPGKGLEWISYISGDSGYTNYADSVKGRFTISRDNSKNTLYLQMNSLRAEDTAVYYCARDRPYYYYMDVWGKGTTVTVSSGGGGSGGGGSGGGGSGGGGSDIQMTQSPSSLSASVGDRVTITCRASQSVSRSLAWYQQKPGKAPKLLIYAASSLQSGVPSRFSGSGSGTDFTLTISSLQPEDFATYYCQQYKSYPVTFGQGTKVEIK

Results on 16 molecules are retold here after US20240132591A1 (PANDION OPERATIONS, published 2024).

Broadly, the Kd is the free concentration of one partner at which half of the binding sites on the other are occupied at equilibrium, for simple one-to-one binding. What is called koff is the first-order rate constant of dissociation. The kon is a measure of how fast the partners come together. Low values mean slow association, high ones fast association.

Residue numbers refer to the chain shown, from its start.

The first assay concerns the target T1, Human MAdCAM (human, UniProt Q13477 19-317, limits assumed).
T1 construct: also called huMAdCAM; human MAdCAM-1
T1 sequence (looked up): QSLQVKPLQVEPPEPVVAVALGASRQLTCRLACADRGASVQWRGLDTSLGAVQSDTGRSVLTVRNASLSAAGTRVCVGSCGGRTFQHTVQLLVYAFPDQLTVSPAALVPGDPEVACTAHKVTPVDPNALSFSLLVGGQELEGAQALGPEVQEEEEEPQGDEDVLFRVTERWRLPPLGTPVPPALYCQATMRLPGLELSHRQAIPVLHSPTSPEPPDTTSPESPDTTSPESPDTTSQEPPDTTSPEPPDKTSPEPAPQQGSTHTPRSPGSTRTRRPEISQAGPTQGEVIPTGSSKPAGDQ
The assay can be described thus: BLI Octet, AHC capture. On the technique in general: BLI is a label-free optical method that tracks binding on a fibre tip over time.
As to B1, the Kd is 2690 nM, the koff was found to be 0.314 s⁻¹ and the kon amounted to 117000 M⁻¹ s⁻¹.
For the molecule B2, binding was put at a Kd of 22.6 nM, the koff is 0.0106 s⁻¹ and the kon is 471000 M⁻¹ s⁻¹.
Consider B3, for which the affinity, expressed as Kd, was 119 nM; the “fold reduction of affinity vs PRNT1” value was found to be 10 fold; the koff was 0.0267 s⁻¹; the kon was 226000 M⁻¹ s⁻¹.
On to B4, for which binding was put at a Kd of 21.8 nM, the koff was 0.00969 s⁻¹ and the kon was 445000 M⁻¹ s⁻¹.
For B5 the same measures were 519 nM, 0.22 s⁻¹ and 372000 M⁻¹ s⁻¹.
In the case of B6, the Kd came to 563 nM, the “fold reduction of affinity vs PRNT1” value was 40 fold, the koff was determined as 0.0818 s⁻¹ and the kon was determined as 145000 M⁻¹ s⁻¹.
As to B7, the Kd is 362 nM, the “fold reduction of affinity vs PRNT1” value was found to be 20 fold, the koff was found to be 0.0599 s⁻¹ and the kon came out at 166000 M⁻¹ s⁻¹.
In the case of B8, the binding result is on record as “no binding (tested: 150 nM)”.
Turning to B9, the binding result was “no binding (tested: 1 µM)”.
B10 yielded a Kd of 218 nM, a koff of 0.0851 s⁻¹ and a kon of 391000 M⁻¹ s⁻¹.

Another assay concerns the target T2, Insulin (UniProt P01308 25-54; P01308 90-110).
T2 construct: Polyreactivity antigen; mature insulin has A and B chains; also called human insulin
The assay can be described thus: ELISA on insulin-coated plate. On the technique in general: An ELISA detects its analyte on a solid surface through an enzyme-linked reagent.
In the case of B1, the binding result is “no binding (tested: 100 nM)”.
With B11, the binding result is reported as “no binding (tested: 100 nM)”.
Take B12: the binding result is reported as “no binding (tested: 100 nM)”.
As for B13, the binding result is “no binding (tested: 100 nM)”.
On to B14, for which the binding result was “no binding (tested: 100 nM)”.
With B8, the binding result was “no binding (tested: 100 nM)”.
On to B9, for which the binding result is recorded as “no binding (tested: 100 nM)”.
On the same count and under the same terms, as for B15, the entry is “no binding (tested: 100 nM)”; as for B16, “no binding (tested: 100 nM)”.

The next assay has as its target T2, Insulin. As to the kind of experiment: ELISA on insulin-coated plate, 100 nM. As to the method:
Non-specific DNA and Insulin binding is predictive of poor pharmacokinetics (PK). An immunosorbent plate was coated with dsDNA at a concentration of 1 μg/mL or Insulin at 5 μg/mL in PBS pH 7.4, 75 μl/well, and incubated overnight at 4° C. Wells were washed with PBS pH 7.4 containing 0.05% Tween-20 (wash buffer) three times, and then blocked with 200 μl/well 1% BSA in PBS pH 7.4 (block buffer) for two hours at room temperature. […] The diluted material was added to the DNA/insulin coated plate at 75 μl/well for 1 hour at room temperature. After three washes with wash buffer, a donkey anti-human FcY HRP conjugated polyclonal antibody, diluted to 1:5000 in assay buffer, was added to the plate at 75 μl/well for 1 hr at room temperature. After three washes with wash buffer and three washes with wash buffer (with no tween-20), the assay was developed with TMB, and stopped with 1N HCL. OD 450 nm was measured. The experiment included appropriate controls for non-specific binding of test articles to the plate/block in the absence of DNA or insulin.
B1: the Insulin polyreactivity score worked out at 3.63.
B11: the Insulin polyreactivity score was 2.08.
The same measure, in the same setting: as for B13, the figure is 2.43; as for B14, 2.67; as for B9, 4.73.
Still for that read-out and setting: for B15 the value was 1.99; for B16, 8.43.
